Experimental data from patent publication US20240285784A1, “PEPTIDIC CONJUGATES OF SN38 USEFUL IN THE TREATMENT OF CANCER” (FUNDACIÓ INSTITUT DE RECERCA BIOMÈDICA (IRB BARCELONA), priority 2020, published 2024).
In brackets after ≈: the same amount, converted by molar mass. Where two headings read alike, the source gives them in different places. *1 amine or outer side, *2 acyl side, *3 side chain or, on linkers, in order; H or OH if unused. Where a SMILES comes first, the peptide text is derived from it. Bridges are numbered along the chain shown (N, C = ends). [ ]: non-standard residue; d: D form. The star is where a group is joined. X1 = CCc1c2c(nc3ccc(O)cc13)-c1cc3c(c(=O)n1C2)COC(=O)[C@@]3(CC)OC(=O)CCCCn1cc(CCCC(=O)NCCCOCCOCCOCCCN*)nn1; Suc = O=C(CCC(=O)[*:2])[*:1]; Dap = NC[C@H](N)C(=O)O

Tests used:
[1] = Stability in human serum at 37° C. in vitro; format: in vitro ADME; conditions: 200 μM in HBSS, 90% human serum
Description: Regarding to the stability in human serum of the SN38-linker A-MiniAp4 (Ia) (example 7), it was incubated at a concentration of 200 μM in buffer HBSS at 37° C. in the presence of 90% human serum. At a range of times, 100 μL aliquots were collected to which 400 μL cold methanol was added in order to precipitate the serum proteins. The samples were centrifuged at 3000 rpm at 4° C. during 30 min, filtered and analyzed by UPLC-PDA and UPLC-MS to determine the degree of degradation of SN38-Linker A-MiniAp4 (Ia).

[2] = Stability in dog plasma at 37° C. in vitro; format: in vitro ADME
Description: (§1) To assess the stability of the SN38-linker A-MiniAp4 (Ia) (example 7) in human, mouse, dog and rat plasma at 37° C., the compound was prepared at 200 μM in plasma samples in triplicates at each timepoint (0 h, 1 h, 4 h, 8 h and 24 h) for each species. Once the incubation was finalised, plasma proteins were immediately precipitated by adding chilly methanol (ratio 4:1, methanol:plasma) and tubes were shacked for few seconds (vortex). Samples were centrifuged at 3,000 rpm for 30 minutes at 4° C., supernatants were collected, transferred to the injection plate and injected to LC-MS system.
(§2) Compound recovery was determined by comparing the analyte response in a biological sample that is spiked with the analyte and processed, with the response in a methanol sample that is spiked with the analyte and processed.
(§3) Plasma stability assay was performed using blank plasma from untreated volunteers/animals. K2-EDTA was used as anticoagulant. Human blank plasma used was obtained from Hospital Sant Pau, mouse blank plasma used was obtained from Janvier, dog blank plasma used was obtained from Isoquimen and rat blank plasma used were obtained from Draconis Pharma.

[3] = Stability in mouse plasma at 37° C. in vitro; format: in vitro ADME
Description: as §1, §2, §3

athymic nude mice [4] = test: In vivo tolerability, repeated intravenous injections (mouse weight); conditions: 30 mg/kg i.v., 9 doses (days 1, 3, 5, 8, 10, 12, 29, 31, 33), weight until day 40
Description: Upon the establishment of the MTD of SN38-linker A-MiniAp4 (Ia) at single i.v, we compared mean weight of mice treated with irinotecan at a clinically relevant multi-dose regimen, and SN38-linker A-MiniAp4 (Ia)at an equimolar dose. Briefly, mice were treated with either irinotecan 10 mg/kg (15 doses, on days 1-5, 8-12 and 29-33), by the intraperitoneal (i.p.) route, or with a SN38-linker A-MiniAp4 (Ia) 30 mg/kg (9 doses, on days 1, 3, 5, 8, 10, 12, 29, 31, 33), intravenously (i.v.). This regimen was considered the maximum feasible number of i.v. injections in mice. Control mice were treated with saline i.p. on days 1-5, 8-12 and 29-33.
Mouse weight was measured until day 40 and mean and SD values are represented for each group in FIG. 19. […] Weight of SN38-linker A-MiniAp4 (Ia) (Ia) treated mice was similar to that of mice treated with clinically relevant dosages of irinotecan.

[5] = Evaluation of solubility in water; format: physicochemical
Description: 25 mg of SN38-linker A-MiniAp4 were dissolved in H2O, showing a completely transparent solution. This means that SN38-linker A-MiniAp4 has a solubility in water higher than 5 mg/mL, more than 400-fold the solubility in water described for SN38 (Mol. Pharmaceutics, 2016, 13, 379-390).

[6] = Maximum tolerated dose, single intravenous injection; format: in vivo, mice; conditions: mouse, in vivo; single intravenous injection, athymic nude mice, observed 14 days
Description: (§4) To evaluate the toxicity of irinotecan and SN38-linker A-MiniAp4 (Ia) (also named G2B-001) in athymic nude mice (10 week old; 8 mice per group) first the maximum tolerated dose (MTD) of SN38-linker A-MiniAp4 (Ia) was studied, by intravenous injection. Three mice were injected at dose levels 200, 500 and 1000 mg/kg, and observed for symptoms including death or weight lost during the following 14 days. The MTD was established at 200 mg/kg.

athymic nude mice [7] = test: as above; format: in vivo; conditions: 200 mg/kg single i.v., following 14 days, compared to untreated control animals
Description: as §4

[8] = Turbidimetric aqueous solubility; format: physicochemical; conditions: for solubility at 2 hr: kinetic from dmso stock, 0.01 M phosphate buffered saline pH 7.4, 1% DMSO, 2 hr at 37° C., absorbance 620 nm
Description: Each test compound concentration was then further diluted 1 in 100 in buffer (0.01 M phosphate buffered saline pH 7.4) so that the final DMSO concentration was 1% and the final test compound concentrations were 1, 3, 10, 30 and 100 μM. The experiment was performed at 37° C. and each concentration was incubated in 7 replicate wells. The plates were incubated for 2 hr at 37° C. before the absorbance was measured at 620 nm.

[9] = Stability in rat plasma at 37° C. in vitro; format: in vitro ADME
Description: as §1, §2, §3

## CCc1c2c(nc3ccc(O)cc13)-c1cc3c(c(=O)n1C2)COC(=O)[C@@]3(CC)OC(=O)CCCCn1cc(CCCC(=O)NCCCOCCOCCOCCCNC(=O)CCC(=O)N[C@H]2CNC(=O)C[C@@H](C(N)=O)NC(=O)[C@H](CC(C)C)NC(=O)[C@H](C)NC(=O)[C@H]([C@@H](C)O)NC(=O)[C@H](CCC(=O)O)NC(=O)[C@@H]3CCCN3C(=O)[C@H](C)NC(=O)[C@H](CCCCN)NC2=O)nn1 [SN38-linker A-MiniAp4 (Ia)] ({X1-Suc}-[Dap]KAPETALD-NH2; lactam 1-9)
[1]
  half-life at 200 μM: > 24 h
[1]; 24 h
  degree of degradation in human serum: No significant degradation
[2]
  half-life at 200 μM: 8 to 24 h
[2]; 24 h, read-out: % Recovery after 24 h in dog plasma
  recovery at 24 h, 200 μM: 68.3%
[3]
  half-life at 200 μM: 8 to 24 h
[3]; 24 h, read-out: % Recovery after 24 h in mouse plasma
  recovery at 24 h, 200 μM: 57.1%
Athymic nude mice [4]
  mouse weight versus controls: did not lose significant weight
[5]; versus literature solubility of SN38 (Mol. Pharmaceutics, 2016, 13, 379-390)
  solubility in water relative to the solubility in water described for SN38: more than 400 fold
[5]; water, 25 mg dissolved in H2O, completely transparent solution
  solubility: > 5000 µg/mL
[6]
  MTD at 14 days: 200 mg/kg
Athymic nude mice [7]
  symptoms including death or weight lost at the MTD: survived and did not show immediate symptoms of distress or significant weight lost
[8]; 37 °C, pH 7.4, aqueous buffer, read-out: Turbidity aqueous solubility, Estimated precipitation range, Lower bond
  solubility at 2 hr: 30 µM (≈ 54.8 µg/mL)
[8]; 37 °C, pH 7.4, aqueous buffer, read-out: Turbidity aqueous solubility, Estimated precipitation range, Upper bond
  solubility at 2 hr: 100 µM (≈ 183 µg/mL)
[8]; aqueous buffer, read-out: Turbidity aqueous solubility, Estimated precipitation range, Calculated mid-range
  solubility at 2 hr: 65 µM (≈ 119 µg/mL)
[8]; up to 100 micromolar
  solubility problems in turbidimetric solubility test: No solubility problems
[9]
  half-life at 200 μM: > 24 h
[9]; 24 h, read-out: % Recovery after 24 h in rat plasma
  recovery at 24 h, 200 μM: 61.2%
